Consider three molecules from publication PMC10267678 (2023).

The chains are these.
B1: NJT3 (VHH)
VHH: QVQLVETGGGLAQAGGSLRLSCAASGRTLSGYAMGWFRQAPGKEREFVAAISWSGRNTYYDYTVQGRFTISKDNAKNTVNLQMNSLKPEDTAVYYCAVSRSLDEFGDGYEMDYWGDGTQVTVSS
modifications: biotin (BLI, IHC) or Alexa-647 (two-photon imaging) added at the C-terminus by sortase-mediated tagging
B2: NJT6 (VHH)
VHH: QVQLVETGGDLVQPGGSLRLSCAASGLTLDYYAIGWVRQAPGKEREGVSCITPQDGNTYYDDSVMGRFTILRDNAKNMVYLQMNNLKPEDTAVYFCAAAGALTLDPSEYEYWGQGTQVTVSS
modifications: biotin (BLI, IHC) or Alexa-647 (two-photon imaging) added at the C-terminus by sortase-mediated tagging
B3: NJT4 (VHH)
VHH: QVQLVESGGGLVQPGGSLRLSCAASGFTFSSYTMRWYRQAPGKERELVAFIGVAGGSTKYADSVKGRFTISRDNTKNTVYLQMNTLKPEDTAVYYCYAPLTPYWGQGTQVTVSS
modifications: biotin (BLI, IHC) or Alexa-647 (two-photon imaging) added at the C-terminus by sortase-mediated tagging

Bounds are passed on as bounds.

The term koff denotes the first-order rate constant of dissociation. As a reminder, the Kd is the free concentration of one partner at which half of the binding sites on the other are occupied at equilibrium, for simple one-to-one binding. Higher therefore signals lower affinity.

For the first test, the target named is T1, full-length human TNC protein (human, UniProt P24821 23-2201). Put plainly: BLI. On the technique in general: BLI is a label-free optical method that tracks binding on a fibre tip over time.
T1 sequence (P24821 23-2201): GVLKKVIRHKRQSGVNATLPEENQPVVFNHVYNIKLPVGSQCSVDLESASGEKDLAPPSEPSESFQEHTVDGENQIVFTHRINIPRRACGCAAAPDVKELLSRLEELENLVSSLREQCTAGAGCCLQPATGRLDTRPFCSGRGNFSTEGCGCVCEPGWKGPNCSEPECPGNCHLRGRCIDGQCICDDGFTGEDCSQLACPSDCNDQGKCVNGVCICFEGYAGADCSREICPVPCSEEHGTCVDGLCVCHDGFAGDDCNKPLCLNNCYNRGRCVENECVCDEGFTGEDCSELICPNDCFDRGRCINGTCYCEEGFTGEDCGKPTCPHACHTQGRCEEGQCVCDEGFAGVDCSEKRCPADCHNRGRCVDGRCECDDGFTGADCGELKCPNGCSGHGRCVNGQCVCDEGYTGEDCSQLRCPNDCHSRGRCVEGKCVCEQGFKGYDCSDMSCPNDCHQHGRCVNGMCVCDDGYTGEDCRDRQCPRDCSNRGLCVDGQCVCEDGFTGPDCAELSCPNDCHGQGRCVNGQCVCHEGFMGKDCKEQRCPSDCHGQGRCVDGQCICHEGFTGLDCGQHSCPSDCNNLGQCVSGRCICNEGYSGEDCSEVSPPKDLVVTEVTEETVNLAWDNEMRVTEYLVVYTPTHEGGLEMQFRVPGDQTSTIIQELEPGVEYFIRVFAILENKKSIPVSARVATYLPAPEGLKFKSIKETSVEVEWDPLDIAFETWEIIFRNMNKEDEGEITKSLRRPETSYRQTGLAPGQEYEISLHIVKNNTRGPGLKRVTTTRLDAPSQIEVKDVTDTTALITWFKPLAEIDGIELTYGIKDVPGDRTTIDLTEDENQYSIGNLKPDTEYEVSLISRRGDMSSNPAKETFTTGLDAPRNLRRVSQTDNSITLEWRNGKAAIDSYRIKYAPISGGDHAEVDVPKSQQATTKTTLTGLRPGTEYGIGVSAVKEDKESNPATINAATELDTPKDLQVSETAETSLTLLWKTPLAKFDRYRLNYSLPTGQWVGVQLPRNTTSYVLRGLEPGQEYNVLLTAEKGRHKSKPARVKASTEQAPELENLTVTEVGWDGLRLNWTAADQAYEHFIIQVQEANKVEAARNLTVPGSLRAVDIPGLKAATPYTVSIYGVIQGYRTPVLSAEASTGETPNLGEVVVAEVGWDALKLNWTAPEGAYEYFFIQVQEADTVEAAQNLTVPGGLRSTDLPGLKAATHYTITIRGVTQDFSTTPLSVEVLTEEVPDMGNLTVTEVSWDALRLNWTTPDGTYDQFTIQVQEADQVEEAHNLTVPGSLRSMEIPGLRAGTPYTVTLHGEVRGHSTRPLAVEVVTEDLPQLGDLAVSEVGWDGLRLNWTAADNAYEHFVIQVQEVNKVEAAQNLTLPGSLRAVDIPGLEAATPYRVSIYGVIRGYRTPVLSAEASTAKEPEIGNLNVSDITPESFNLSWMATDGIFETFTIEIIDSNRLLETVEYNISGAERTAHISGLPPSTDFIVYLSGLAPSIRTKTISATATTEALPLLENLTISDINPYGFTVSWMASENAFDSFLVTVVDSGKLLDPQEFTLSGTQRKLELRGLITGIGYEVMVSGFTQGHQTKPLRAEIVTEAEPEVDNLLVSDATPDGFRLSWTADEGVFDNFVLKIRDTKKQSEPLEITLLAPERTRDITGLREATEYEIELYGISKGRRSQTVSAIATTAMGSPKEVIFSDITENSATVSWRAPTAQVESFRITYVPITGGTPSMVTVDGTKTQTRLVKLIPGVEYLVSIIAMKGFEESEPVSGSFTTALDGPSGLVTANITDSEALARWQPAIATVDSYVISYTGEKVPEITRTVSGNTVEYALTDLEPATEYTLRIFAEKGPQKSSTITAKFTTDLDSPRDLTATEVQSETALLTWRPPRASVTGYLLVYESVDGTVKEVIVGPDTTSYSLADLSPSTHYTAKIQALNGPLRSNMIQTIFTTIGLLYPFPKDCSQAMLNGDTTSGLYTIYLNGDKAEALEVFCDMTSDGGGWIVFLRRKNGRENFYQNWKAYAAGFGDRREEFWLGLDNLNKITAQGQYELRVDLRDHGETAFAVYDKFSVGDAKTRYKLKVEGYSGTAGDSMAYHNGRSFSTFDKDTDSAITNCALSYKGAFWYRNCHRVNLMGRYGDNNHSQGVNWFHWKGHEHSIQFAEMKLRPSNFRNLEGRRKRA
Molecule B1 returned a koff of 2.35e-07 s⁻¹.
On the same count and under the same terms, in the case of B2 it was under 1e-07 s⁻¹; in that of B3, under 1e-07 s⁻¹.

In a further test the target is T1, full-length human TNC protein. Put plainly: BLI. The source holds these as a separate data set.
With B1, the Kd is 1.47 pM.
B2: the dissociation constant Kd was under 1 pM.
In turn, B3 gave a dissociation constant (Kd) of under 1 pM.
